Where two headings read alike, the source gives them in different places. One block for each molecule: values may come before it.
Legend:
[1] = molecular target: T1, BAP-MED23-6His, biotinylated (human, UniProt Q9ULK4-1 1-1368, biotin on the BAP tag (biotinylated during expression)); test: SPR; BIAcore T200; biotinylated BAP-MED23 captured on a streptavidin SA chip (2000-3000 RU), PBS+ buffer; GST-fused Elk-1 derivatives injected at 0.25-4 µM, single-cycle kinetics in triplicate, 1:1 Langmuir model
T1 construct: Mediator complex subunit MED23, human, isoform 1 (NM_004830.3); Captured by its biotin on a streptavidin SA chip; also called biotinylated MED23; MED23 with a BAP tag; source: insect cells (pFastBac Dual with BirA biotin ligase), purified by the same procedure as MED23-6His; not shown: BAP (biotin acceptor peptide), N-terminal, kept
T1 sequence: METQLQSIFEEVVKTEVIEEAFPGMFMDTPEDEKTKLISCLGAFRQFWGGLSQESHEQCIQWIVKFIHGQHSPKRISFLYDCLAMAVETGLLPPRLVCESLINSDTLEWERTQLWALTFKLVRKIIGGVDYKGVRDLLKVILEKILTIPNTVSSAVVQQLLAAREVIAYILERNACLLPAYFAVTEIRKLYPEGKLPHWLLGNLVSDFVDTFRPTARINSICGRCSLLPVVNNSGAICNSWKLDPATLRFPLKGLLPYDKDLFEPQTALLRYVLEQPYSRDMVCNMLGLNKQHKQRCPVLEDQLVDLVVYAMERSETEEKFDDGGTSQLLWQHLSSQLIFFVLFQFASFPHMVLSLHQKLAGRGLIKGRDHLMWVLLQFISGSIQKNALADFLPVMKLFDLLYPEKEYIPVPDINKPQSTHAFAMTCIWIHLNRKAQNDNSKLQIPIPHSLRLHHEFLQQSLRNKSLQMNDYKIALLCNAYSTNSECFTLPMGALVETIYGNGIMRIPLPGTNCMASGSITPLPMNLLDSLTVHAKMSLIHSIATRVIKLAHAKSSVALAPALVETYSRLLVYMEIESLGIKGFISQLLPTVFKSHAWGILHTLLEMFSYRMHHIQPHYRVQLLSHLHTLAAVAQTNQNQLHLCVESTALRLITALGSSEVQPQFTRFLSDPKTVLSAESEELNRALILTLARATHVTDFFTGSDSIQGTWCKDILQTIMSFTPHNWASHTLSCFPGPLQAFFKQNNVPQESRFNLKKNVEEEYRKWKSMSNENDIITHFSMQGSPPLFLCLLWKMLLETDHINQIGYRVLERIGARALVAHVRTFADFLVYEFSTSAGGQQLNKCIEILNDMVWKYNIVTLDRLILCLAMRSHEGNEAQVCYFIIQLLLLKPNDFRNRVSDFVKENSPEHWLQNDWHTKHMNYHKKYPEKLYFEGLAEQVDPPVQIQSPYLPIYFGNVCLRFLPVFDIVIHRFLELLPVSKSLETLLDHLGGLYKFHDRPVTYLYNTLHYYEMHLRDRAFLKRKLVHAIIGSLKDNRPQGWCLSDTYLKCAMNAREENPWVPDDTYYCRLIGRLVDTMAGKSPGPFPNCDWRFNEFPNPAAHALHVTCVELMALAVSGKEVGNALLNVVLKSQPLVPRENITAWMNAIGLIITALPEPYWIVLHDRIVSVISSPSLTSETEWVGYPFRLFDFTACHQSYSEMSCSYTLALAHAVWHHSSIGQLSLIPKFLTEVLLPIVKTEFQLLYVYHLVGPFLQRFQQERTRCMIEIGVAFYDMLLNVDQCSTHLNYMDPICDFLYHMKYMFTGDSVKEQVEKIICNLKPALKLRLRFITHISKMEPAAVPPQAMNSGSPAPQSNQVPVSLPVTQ

[2] = molecular target: T2, MED23-6His (human Mediator complex subunit MED23, wild type) (human, UniProt Q9ULK4-1 1-1368); test: pull-down; 4 µg GST constructs immobilised on GST-Trap agarose; 20 µg recombinant MED23 or MED23 G382F, 90 min at 4 °C in PBS-casein; SDS-PAGE, Coomassie; details: both partners purified
T2 construct: Mediator complex subunit MED23, human, isoform 1 (NM_004830.3); cloned before a rhinovirus 3C protease site followed by a 6xHis tag; The stored protein is named MED23-6His; cleavage by 3C protease is not reported; In the functional rows MED23 WT was expressed from PIN510A-1 or FC550A-1 plasmids in MED23-/- MEFs; also called MED23 WT; recombinant MED23; source: ExpiSF9 insect cells (baculovirus), …
T2 sequence: T1 sequence

- Kd [1]: 81 nM
Molecule: GST-fused Elk-1^1P (S383P) (308–401)-6His, phosphorylated only at S383 (from UniProt P19419 308-401) (domain or fragment)

- Kd [1]: 42 nM
Molecule: GST-fused Elk-1^2P (T368P/S383P) (308–401)-6His, phosphorylated at T368 and S383 (from UniProt P19419 308-401) (domain or fragment)

- Kd [1]: 75 nM
Molecule: GST-fused Elk-1^2P (T368P/S389P) (308–401)-6His, phosphorylated at T368 and S389 (from UniProt P19419 308-401) (domain or fragment)

- Kd ([1]; both partners purified): 60 nM
B1: GST-fused Elk-1^3P (308–401)-6His, phosphorylated at T368, S383 and S389 (domain or fragment, UniProt P19419 308-401, looked up)
chain: SQPQKGRKPRDLELPLSPSLLGGPGPERAPGSGSGSGLQAPGPALAPSLLPTHTLAPVLLTPSSLPPSIHFWSTLSPIAPRSPAKLSFQFPSSG
modifications: phosphorylated at T368, S383 and S389 by co-expressed ERK kinase
notes: In pGEX-4T1 (synthesised by Genscript); also called triply phosphorylated Elk-1; source: E. coli BL21 (DE3), co-expressed with MBP-ERK2-GOF/MEK1DD, purified (GSTrap 4B and/or HisTap HP)

- binding result [2]: binds
B2: phosphorylated GST-Elk-1^8P (308–428)-6His (domain or fragment, UniProt P19419 308-428, looked up)
chain: SQPQKGRKPRDLELPLSPSLLGGPGPERTPGSGSGSGLQAPGPALTPSLLPTHTLTPVLLTPSSLPPSIHFWSTLSPIAPRSPAKLSFQFPSSGSAQVHIPSISVDGLSTPVVLSPGPQKP
modifications: phosphorylated in E. coli by co-expressed ERK2-GOF/MEK1DD; which of the eight S/T-P sites carry phosphate is not stated
notes: In pGEX-6P1; also called Elk-1 TAD; Gal4-Elk-1^8P (308–428) in the reporter assays; source: E. coli BL21 (DE3), co-expressed with MBP-ERK2-GOF/MEK1DD, purified (GSTrap 4B and/or HisTap HP); not shown: GST, N-terminal, kept
